Test results as given in ChEMBL document CHEMBL1250451, “Mechanistic insights into a Ca2+-dependent family of alpha-mannosidases in a human gut symbiont” (Nat Chem Biol, 2010).
Changes are numbered by the printed parent chain. In names and notes the source's numbering stands.

Assays:
Assay type in all cases: protein assay; call rule not given here
[1] = substrate: O=[N+]([O-])c1ccc(O[C@H]2O[C@H](CO)[C@@H](O)[C@H](O)[C@@H]2O)cc1; assay: (§1) Activity of Bacteroides thetaiotaomicron GH92 alpha-mannosidase 3990 D642A mutant assessed as as mannose release after 16 hrs by HPLC relative to wild type enzyme
[2] = substrate: OC[C@H]1O[C@H](O[C@H]2[C@@H](O)[C@H](O)[C@@H](CO)O[C@@H]2O)[C@@H](O)[C@@H](O)[C@@H]1O; assay: as §1
[3] = substrate: O=[N+]([O-])c1ccc(O[C@H]2O[C@H](CO)[C@@H](O)[C@H](O)[C@@H]2O)c([N+](=O)[O-])c1; assay: (§2) Ratio of Kcat to Km for Bacteroides thetaiotaomicron GH92 alpha-mannosidase 3990 D642A mutant assessed as as mannose release after 16 hrs by HPLC relative to wild type enzyme
[4] = substrate: O=[N+]([O-])c1ccc(O[C@H]2O[C@H](CO)[C@@H](O)[C@H](O)[C@@H]2O)cc1; assay: as §2
[5] = substrate: OC[C@H]1O[C@H](O[C@H]2[C@@H](O)[C@H](O)[C@@H](CO)O[C@@H]2O)[C@@H](O)[C@@H](O)[C@@H]1O; assay: as §2
[6] = substrate: O=[N+]([O-])c1ccc(O[C@H]2O[C@H](CO)[C@@H](O)[C@H](O)[C@@H]2O)cc1; assay: (§3) Activity of Bacteroides thetaiotaomicron GH92 alpha-mannosidase 3990 E643A mutant assessed as as mannose release after 16 hrs by HPLC relative to wild type enzyme
[7] = substrate: OC[C@H]1O[C@H](O[C@H]2[C@@H](O)[C@H](O)[C@@H](CO)O[C@@H]2O)[C@@H](O)[C@@H](O)[C@@H]1O; assay: as §3
[8] = substrate: O=[N+]([O-])c1ccc(O[C@H]2O[C@H](CO)[C@@H](O)[C@H](O)[C@@H]2O)c([N+](=O)[O-])c1; assay: (§4) Ratio of Kcat to Km for Bacteroides thetaiotaomicron GH92 alpha-mannosidase 3990 E643A mutant assessed as as mannose release after 16 hrs by HPLC relative to wild type enzyme
[9] = substrate: O=[N+]([O-])c1ccc(O[C@H]2O[C@H](CO)[C@@H](O)[C@H](O)[C@@H]2O)cc1; assay: as §4
[10] = substrate: OC[C@H]1O[C@H](O[C@H]2[C@@H](O)[C@H](O)[C@@H](CO)O[C@@H]2O)[C@@H](O)[C@@H](O)[C@@H]1O; assay: as §4
[11] = substrate: O=[N+]([O-])c1ccc(O[C@H]2O[C@H](CO)[C@@H](O)[C@H](O)[C@@H]2O)c([N+](=O)[O-])c1; assay: (§5) Ratio of Kcat to Km for Bacteroides thetaiotaomicron GH92 alpha-mannosidase 3990 Q602A mutant assessed as as mannose release after 16 hrs by HPLC relative to wild type enzyme
[12] = substrate: O=[N+]([O-])c1ccc(O[C@H]2O[C@H](CO)[C@@H](O)[C@H](O)[C@@H]2O)cc1; assay: as §5
[13] = substrate: OC[C@H]1O[C@H](O[C@H]2[C@@H](O)[C@H](O)[C@@H](CO)O[C@@H]2O)[C@@H](O)[C@@H](O)[C@@H]1O; assay: as §5
[14] = substrate: O=[N+]([O-])c1ccc(O[C@H]2O[C@H](CO)[C@@H](O)[C@H](O)[C@@H]2O)cc1; assay: (§6) Activity of Bacteroides thetaiotaomicron GH92 alpha-mannosidase 3990 Q602A mutant assessed as as mannose release after 16 hrs by HPLC relative to wild type enzyme
[15] = substrate: OC[C@H]1O[C@H](O[C@H]2[C@@H](O)[C@H](O)[C@@H](CO)O[C@@H]2O)[C@@H](O)[C@@H](O)[C@@H]1O; assay: as §6
[16] = substrate: O=[N+]([O-])c1ccc(O[C@H]2O[C@H](CO)[C@@H](O)[C@H](O)[C@@H]2O)cc1; assay: (§7) Activity of Bacteroides thetaiotaomicron GH92 alpha-mannosidase 3990 N601A mutant assessed as as mannose release after 16 hrs by HPLC relative to wild type enzyme
[17] = substrate: OC[C@H]1O[C@H](O[C@H]2[C@@H](O)[C@H](O)[C@@H](CO)O[C@@H]2O)[C@@H](O)[C@@H](O)[C@@H]1O; assay: as §7
[18] = substrate: O=[N+]([O-])c1ccc(O[C@H]2O[C@H](CO)[C@@H](O)[C@H](O)[C@@H]2O)c([N+](=O)[O-])c1; assay: (§8) Ratio of Kcat to Km for Bacteroides thetaiotaomicron GH92 alpha-mannosidase 3990 N601A mutant assessed as as mannose release after 16 hrs by HPLC relative to wild type enzyme
[19] = substrate: O=[N+]([O-])c1ccc(O[C@H]2O[C@H](CO)[C@@H](O)[C@H](O)[C@@H]2O)cc1; assay: as §8
[20] = substrate: OC[C@H]1O[C@H](O[C@H]2[C@@H](O)[C@H](O)[C@@H](CO)O[C@@H]2O)[C@@H](O)[C@@H](O)[C@@H]1O; assay: as §8
[21] = substrate: O=[N+]([O-])c1ccc(O[C@H]2O[C@H](CO)[C@@H](O)[C@H](O)[C@@H]2O)cc1; assay: (§9) Activity of Bacteroides thetaiotaomicron GH92 alpha-mannosidase 2199 D648A mutant assessed as as mannose release after 16 hrs by HPLC relative to wild type enzyme
[22] = substrate: OC[C@H]1O[C@H](O[C@H]2[C@@H](O)[C@H](O)[C@@H](CO)O[C@@H]2O)[C@@H](O)[C@@H](O)[C@@H]1O; assay: as §9
[23] = substrate: O=[N+]([O-])c1ccc(O[C@H]2O[C@H](CO)[C@@H](O)[C@H](O)[C@@H]2O)cc1; assay: (§10) Ratio of Kcat to Km for Bacteroides thetaiotaomicron GH92 alpha-mannosidase 2199 D648A mutant assessed as as mannose release after 16 hrs by HPLC relative to wild type enzyme
[24] = substrate: OC[C@H]1O[C@H](O[C@H]2[C@@H](O)[C@H](O)[C@@H](CO)O[C@@H]2O)[C@@H](O)[C@@H](O)[C@@H]1O; assay: as §10
[25] = substrate: O=[N+]([O-])c1ccc(O[C@H]2O[C@H](CO)[C@@H](O)[C@H](O)[C@@H]2O)cc1; assay: (§11) Activity of Bacteroides thetaiotaomicron GH92 alpha-mannosidase 2199 D648N mutant assessed as as mannose release after 16 hrs by HPLC relative to wild type enzyme
[26] = substrate: OC[C@H]1O[C@H](O[C@H]2[C@@H](O)[C@H](O)[C@@H](CO)O[C@@H]2O)[C@@H](O)[C@@H](O)[C@@H]1O; assay: as §11
[27] = substrate: O=[N+]([O-])c1ccc(O[C@H]2O[C@H](CO)[C@@H](O)[C@H](O)[C@@H]2O)cc1; assay: (§12) Ratio of Kcat to Km for Bacteroides thetaiotaomicron GH92 alpha-mannosidase 2199 D648N mutant assessed as as mannose release after 16 hrs by HPLC relative to wild type enzyme
[28] = substrate: OC[C@H]1O[C@H](O[C@H]2[C@@H](O)[C@H](O)[C@@H](CO)O[C@@H]2O)[C@@H](O)[C@@H](O)[C@@H]1O; assay: as §12

B1: Alpha-1,2-mannosidase (BT_3990) (Bacteroides thetaiotaomicron), Q8A0N1 D642A (protein)
chain: MKRLLLIACILNCTLLSQAKDWTQYVNPLMGSQSTFELSTGNTYPAIARPWGMNFWTPQTGKMGDGWQYTYTANKIRGFKQTHQPSPWINDYGQFSIMPIVGQPVFDEEKRASWFAHKGEVATPYYYKVYLAEHDIVTEMTPTERAVLFRFTFPENDHSYVVVDAFDKGSYIKIIPEENKIIGYTTRNSGGVPENFKNYFIIEFDKPFTYKATVENGNLQENVAEQTTDHAGAIIGFKTRKGEQVNARIASSFISFEQAAANMNELGKDNIEQLAQKGKDAWNQVLGKIEVEGGNLDQYRTFYSCLYRSLLFPRKFYELDANGQPIHYSPYNGQVLPGYMFTDTGFWDTFRCLFPLLNLMYPSVNKEMQEGLINTYLESGFFPEWASPGHRGCMVGNNSASILVDAYMKGVKVDDIKTLYEGLIHGTENVHPEVSSTGRLGYEYYNKLGYVPYDVKINENAARTLEYAYDDWCIYRLAKELKRPKKEISLFAKRAMNYKNLFDKESKLMRGRNEDGTFQSPFSPLKWGDAFTEGNSWHYTWSVFHDPQGLIDLMGGKEMFVTMMDSVFAVPPIFDDSYYGQVIHEIREMTVMNMGNYAHGNQPIQHMIYLYDYAGQPWKAQYWLRQVMDRMYTPGPDGYCGAEDNGQTSAWYVFSALGFYPVCPGTDEYVMGTPLFKKATLHFENGNSLVIDAPNNSTENFYIDSMSFNGADHTKNYLRHEDLFKGGTIKVDMSNRPNLNRGTKEEDMPYSFSKE
[1]
  Km: Not Active
  kcat: Not Active
[2]
  Km: 0.69 mM
  kcat: 0.000533 s⁻¹
[3]
  kcat/Km: 0.383 M⁻¹ s⁻¹
[4]
  kcat/Km: Not Active
[5]
  kcat/Km: 0.783 M⁻¹ s⁻¹

B2: Alpha-1,2-mannosidase (BT_3990) (Bacteroides thetaiotaomicron), Q8A0N1 E643A (protein)
chain: B1 chain with A642D, E643A
[6]
  Km: Not Active
  kcat: Not Active
[7]
  Km: Not Active
  kcat: Not Active
[8]
  kcat/Km: 0.25 M⁻¹ s⁻¹
[9]
  kcat/Km: Not Active
[10]
  kcat/Km: 13.2 M⁻¹ s⁻¹

B3: Alpha-1,2-mannosidase (BT_3990) (Bacteroides thetaiotaomicron), Q8A0N1 Q602A (protein)
chain: B1 chain with Q602A, A642D
[11]
  kcat/Km: 20 M⁻¹ s⁻¹
[12]
  kcat/Km: 0.35 M⁻¹ s⁻¹
[13]
  kcat/Km: 383 M⁻¹ s⁻¹
[14]
  Km: 6.6 mM
  kcat: 0.00233 s⁻¹
[15]
  Km: 16 mM
  kcat: 6 s⁻¹

B4: Alpha-1,2-mannosidase (BT_3990) (Bacteroides thetaiotaomicron), Q8A0N1 N601A (protein)
chain: B1 chain with N601A, A642D
[16]
  Km: 9.7 mM
  kcat: 0.00055 s⁻¹
[17]
  Km: 3.3 mM
  kcat: 0.85 s⁻¹
[18]
  kcat/Km: 6.17 M⁻¹ s⁻¹
[19]
  kcat/Km: 0.05 M⁻¹ s⁻¹
[20]
  kcat/Km: 250 M⁻¹ s⁻¹

B5: Alpha-1,2-mannosidase (BT_2199) (Bacteroides thetaiotaomicron), Q8A5N9 D648A (protein)
chain: MVTRLFFLSICFPFLLTSCQQSKKTVEFVDYVNPLMGTESTFAFSHGNTYPAVAVPWGMNFWSPQTGENGSGWMYTYTDSLMRGFRQTHQPSPWINDYGTFSIMPLAGELKMSHKERLVPFSHQQEKATPYNYSVTFNNGLQTSLSATSRGAVFEVSFPEKEDQYVVVDAYNGGSSITIEPEKRLVKGATRYNNGGVPDNFANYFMMEFSHPVIEYGTYNGDTLLHHQTDVAADYTCAYLKFDVPAGEKLTIRTASSFISPEQAAINFNREVADADVQLISGKAREQWNNYLGRVEAEGGTDEQLRTFYSCLYRTLLFPREFYEFDSQGNPVYYSPYDGNVHDGYMYTDNGFWDTFRAVHPLFTLLYPEVSERVTQSIINAYNESGFMPEWASPGHRGCMIGNNSVSLLVDAWMKGIQTVDAEKALEAMIHQTQARHAEIASVGRDGFEYYDKLGYVPYPEVPEATAKTLEYAYADWCIARFAESLGKQDIADQYYQKAPNYRNLYYPEHGFMWTKDAKGNWRDRFDATEWGGPFTEGSSWHWTWSVFHDPEGLSELMGGHEPMIARLDSMFVAPNTYNYGTYGFVIHEIAEMVALNMGQYAHGNQPVQHAIYLYDYIGQPWKTQYHLRNVMDKLYNSGSKGYCGDEANGQTSAWYVFSAMGFYPVCPGMPEYAIGSPLFKKVTLHLPEGKNFVVSAADNAADRPYIRKALLNGQEFTRNYLTHDELKQGGELNLSMDSVPNQQRGTQPADFPYSYSK
[21]
  Km: Not Active
  kcat: Not Active
[22]
  Km: 2.72 mM
  kcat: 0.000433 s⁻¹
[23]
  kcat/Km: Not Active
[24]
  kcat/Km: 0.167 M⁻¹ s⁻¹

B6: Alpha-1,2-mannosidase (BT_2199) (Bacteroides thetaiotaomicron), Q8A5N9 D648N (protein)
chain: B5 chain with A648N
[25]
  Km: Not Active
  kcat: Not Active
[26]
  Km: 1.27 mM
  kcat: 0.000483 s⁻¹
[27]
  kcat/Km: Not Active
[28]
  kcat/Km: 0.383 M⁻¹ s⁻¹
